Laboratory results from publication PMC11870023, “A facile assay for zDHHC palmitoyl transferase activation elucidates effects of mutation and modification” (Journal of Lipid Research, 2025).

What was measured:
Assay in all cases: auto-S-palmitoylation of HEK293 membranes, SDS-PAGE fluorescence normalised to tag Western blot
[1] = substrate: CC(C)(COP(=O)(O)OP(=O)(O)OC[C@H]1O[C@@H](n2cnc3c(N)ncnc32)[C@H](O)[C@@H]1OP(=O)(O)O)[C@@H](O)C(=O)NCCC(=O)NCCSC(=O)CCCCCCCCCCCCCCCNc1ccc([N+](=O)[O-])c2nonc12; type: cell-based, Mus musculus; conditions: pH 7.4, 37 °C, labelled compound, covalent thioester at active-site Cys
[2] = substrate: CC(C)(COP(=O)(O)OP(=O)(O)OC[C@H]1O[C@@H](n2cnc3c(N)ncnc32)[C@H](O)[C@@H]1OP(=O)(O)O)[C@@H](O)C(=O)NCCC(=O)NCCSC(=O)CCCCCCCCCCCCCCCNc1ccc([N+](=O)[O-])c2nonc12; type: cell-based, Homo sapiens; conditions: pH 7.4, 37 °C, 2 min, labelled compound, covalent thioester at active-site Cys
Text: auto-S-palmitoylation of HEK293 membranes, SDS-PAGE fluorescence normalised to tag Western blot on human zDHHC2 | neither S306 F nor M356I mutation of zDHHC2 within the C-terminal cytoplasmic tail

[3] = substrate: CC(C)(COP(=O)(O)OP(=O)(O)OC[C@H]1O[C@@H](n2cnc3c(N)ncnc32)[C@H](O)[C@@H]1OP(=O)(O)O)[C@@H](O)C(=O)NCCC(=O)NCCSC(=O)CCCCCCCCCCCCCCCNc1ccc([N+](=O)[O-])c2nonc12; type: cell-based, Homo sapiens; conditions: pH 7.4, 37 °C, labelled compound, covalent thioester at active-site Cys
[4] = substrate: CC(C)(COP(=O)(O)OP(=O)(O)OC[C@H]1O[C@@H](n2cnc3c(N)ncnc32)[C@H](O)[C@@H]1OP(=O)(O)O)[C@@H](O)C(=O)NCCC(=O)NCCSC(=O)CCCCCCCCCCCCCCCNc1ccc([N+](=O)[O-])c2nonc12; type: biochemical, Mus musculus; conditions: pH 7.4, 37 °C, 2 min, labelled compound, covalent thioester at active-site Cys134

B1: mouse zDHHC3 (Mus musculus) (protein)
chain: MMLIPTHHFRDIERKPEYLQPEKCAPPPFPGPAGAMWFIRDGCGIACAIVTWFLVLYAEFVVLFVMLVPSRDYAYSIINGIVFNLLAFLALASHCRAMLTDPGAVPKGNATKEFIESLQLKPGQVVYKCPKCCSIKPDRAHHCSVCKRCIRKMDHHCPWVNNCVGENNQKYFVLFTMYIALISLHALIMVGFHFLHCFEEDWTKCSSFSPPTTVILLILLCFEALLFLIFTSVMFGTQVHSICTDETGIEQLKKEERRWAKKTKWMNMKAVFGHPFSLGWASPFATPDQGKADPYQYVV
notes: full length, HA tag kept (pEF-Bos-HA), HEK293 membrane fraction
Km [1]: 6.83 ± 0.98 µM

B2: mouse zDHHC14 (Mus musculus) (protein)
chain: MPPGGGGPMKDCEYSQISTHSSSPMESPHKKKKIAARRKWEVFPGRNKFFCNGRIMMARQTGVFYLTLILILVTSGLFFAFDCRYLAEKITPAIPVVGGILFFFVMGTLLRTSFSDPGVLPRATPDEAADLERQIDIANGTSSGGYRPPPRTKEVVINGQTVKLKYCFTCKIFRPPRASHCSLCDNCVEQFDHHCPWVGNCVGKRNYRFFYMFILSLSFLTVFIFAFVITHVIHRSQQKGFLDALKDSPASVLEAVICFFSVWSIIGLSGFHTYLISSNQTTNEDIKGSWSNKRGKENYNPYSYGNIFTNCCVALCGPISPSLIDRRGYVQPDTPQPAAPSNGITMYGATQSQSDMCDQDQCIQSTKFVLQAAATPLLQSEPSLTSEELHMPGKPGLGTPCASLTLGQPTPPSSMPNLATEATLSDIMPLKDEHGGHQFLTPDEAPSPPRMLGAGSPLAHSRTMHMLGLASQDSLHEDSVRGLVKLSSV
notes: as for B1
Km [1]: 0.98 ± 0.15 µM

B3: mouse zDHHC4 (Mus musculus) (protein)
chain: MDFLVLFLFYLAFLLICVVLICIFTKSQRLKAVVLGGAQVCSRVIPQCLQRAVQTLLHQLFHTRHPTFIVLHLLLQGLVYAEYTCEVFGYCRELEFSLPYLLLPYVLLSVNLVFFTLTCAANPGTITKANESFLLQVYKFDDVMFPKNSRCPTCDLRKPARSKHCRLCDRCVHRFDHHCVWVNNCIGAWNTRYFLIYLLTLTASAATIATVTAAFLLRLVTVSDLYQETYLDDVGHFQAVDTVFLIQHLFLAFPRIVFLLGFVIVLSMLLAGYLCFALYLAATNQTTNEWYKGDWAWCQRWPLVAWSPSAEPRIHQNIHSHGFRSNLREIFLPATPSYKKKEK
notes: as for B1
Km [1]: 0.69 ± 0.13 µM

B4: human zDHHC2 (Homo sapiens; S306F) (protein)
chain: MAPSGPGSSARRRCRRVLYWIPVVFITLLLGWSYYAYAIQLCIVSMENTGEQVVCLMAYHLLFAMFVWSYWKTIFTLPMNPSKEFHLSYAEKDLLEREPRGEAHQEVLRRAAKDLPIYTRTMSGAIRYCDRCQLIKPDRCHHCSVCDKCILKMDHHCPWVNNCVGFSNYKFFLLFLAYSLLYCLFIAATDLQYFIKFWTNGLPDTQAKFHIMFLFFAAAMFSVSLSSLFGYHCWLVSKNKSTLEAFRSPVFRHGTDKNGFSLGFSKNMRQVFGDEKKYWLLPIFSSLGDGCSFPTCLVNQDPEQAFTPAGLNSTAKNLENHQFPAKPLRESQSHLLTDSQSWTESSINPGKCKAGMSNPALTMENET
notes: full length, His6-Myc tag kept (pCEpuro-His6-Myc-1), HEK293 membrane fraction
Km [2]: 3.36 ± 0.73 µM

B5: human zDHHC2 (Homo sapiens) (protein)
chain: MAPSGPGSSARRRCRRVLYWIPVVFITLLLGWSYYAYAIQLCIVSMENTGEQVVCLMAYHLLFAMFVWSYWKTIFTLPMNPSKEFHLSYAEKDLLEREPRGEAHQEVLRRAAKDLPIYTRTMSGAIRYCDRCQLIKPDRCHHCSVCDKCILKMDHHCPWVNNCVGFSNYKFFLLFLAYSLLYCLFIAATDLQYFIKFWTNGLPDTQAKFHIMFLFFAAAMFSVSLSSLFGYHCWLVSKNKSTLEAFRSPVFRHGTDKNGFSLGFSKNMRQVFGDEKKYWLLPIFSSLGDGCSFPTCLVNQDPEQASTPAGLNSTAKNLENHQFPAKPLRESQSHLLTDSQSWTESSINPGKCKAGMSNPALTMENET
notes: as for B4
Km ([3]; 2 min): 4.46 ± 0.49 µM

B6: human zDHHC2 (Homo sapiens; M356I) (protein)
chain: MAPSGPGSSARRRCRRVLYWIPVVFITLLLGWSYYAYAIQLCIVSMENTGEQVVCLMAYHLLFAMFVWSYWKTIFTLPMNPSKEFHLSYAEKDLLEREPRGEAHQEVLRRAAKDLPIYTRTMSGAIRYCDRCQLIKPDRCHHCSVCDKCILKMDHHCPWVNNCVGFSNYKFFLLFLAYSLLYCLFIAATDLQYFIKFWTNGLPDTQAKFHIMFLFFAAAMFSVSLSSLFGYHCWLVSKNKSTLEAFRSPVFRHGTDKNGFSLGFSKNMRQVFGDEKKYWLLPIFSSLGDGCSFPTCLVNQDPEQASTPAGLNSTAKNLENHQFPAKPLRESQSHLLTDSQSWTESSINPGKCKAGISNPALTMENET
notes: as for B4
Km [2]: 4.59 ± 0.89 µM

B7: human zDHHC14 (Homo sapiens) (protein)
chain: MPPGGGGPMKDCEYSQISTHSSSPMESPHKKKKIAARRKWEVFPGRNKFFCNGRIMMARQTGVFYLTLVLILVTSGLFFAFDCPYLAVKITPAIPAVAGILFFFVMGTLLRTSFSDPGVLPRATPDEAADLERQIDIANGTSSGGYRPPPRTKEVIINGQTVKLKYCFTCKIFRPPRASHCSLCDNCVERFDHHCPWVGNCVGKRNYRFFYMFILSLSFLTVFIFAFVITHVILRSQQTGFLNALKDSPASVLEAVVCFFSVWSIVGLSGFHTYLISSNQTTNEDIKGSWSNKRGKENYNPYSYGNIFTNCCVALCGPISPSLIDRRGYIQPDTPQPAAPSNGITMYGATQSQSDMCDQDQCIQSTKFVLQAAATPLLQSEPSLTSDELHLPGKPGLGTPCASLTLGPPTPPASMPNLAEATLADVMPRKDEHMGHQFLTPDEAPSPPRLLAAGSPLAHSRTMHVLGLASQDSLHEDSVRGLVKLSSV
notes: as for B4
Km ([3]; 2 min): 1.78 ± 0.32 µM

B8: HA-tagged mouse zDHHC5 (Mus musculus) (protein)
chain: MPAESGKRFKPSKYVPVSAAAIFLVGATTLFFAFTCPGLSLNVSPAVPIYNAIMFLFVLANFSMATFMDPGIFPRAEEDEDKEDDFRAPLYKTVEIKGIQVRMKWCATCRFYRPPRCSHCSVCDNCVEEFDHHCPWVNNCIGRRNYRYFFLFLLSLTAHIMGVFGFGLLYVLYHIEELSGVRTAVTMAVMCVAGLFFIPVAGLTGFHVVLVARGRTTNEQVTGKFRGGVNPFTNGCCNNVSRVLCSSPAPRYLGRPKKEKTIVIRPPFLRPEVSDGQITVKIMDNGIQGELRRTKSKGSLEITESQSADAEPPPPPKPDLSRYTGLRTHLSLATNEDSSLLGKDSPPTPTMYKYRPGYSSSSTSAAMPHSSSAKLSRGDSLKEPTSIADSSRHPSYRSEPSLEPESFRSPTFGKSFHFDPLSSGSRSSSLKSAQGTGFELGQLQSIRSEGTTSTSYKSLANQTRNGSLSYDSLLTPSDSPDFESVQAGPEPDPPLGYTSPFLSARLAQQREAERHPRLLPTGPPHREPSPVRYDNLSRHIVASLQEREKLLRQSPPLAGREEEPGLGDSGIQSTPGSGHAPRTSSSSDDSKRSPLSKTPLGRPAVPRFGKPDGLRSRGLGSPEPGTTAPYLGRSISYSSQKAPSGVSETEEVALQPLLTPKDEVQLKTTYSKSNGQPKSIGSASPGPGQPPLSSPTRGGVKKVSGVGGTTYEISV
notes: full length, HA tag kept (pEF-Bos-HA), overexpressed in HEK293 cells, native membrane fraction; 78 kDa band
Km [4]: 3.59 ± 0.29 µM

B9: HA-tagged mouse zDHHC5 (Mus musculus; C236S/C237S/C245S) (protein)
chain: MPAESGKRFKPSKYVPVSAAAIFLVGATTLFFAFTCPGLSLNVSPAVPIYNAIMFLFVLANFSMATFMDPGIFPRAEEDEDKEDDFRAPLYKTVEIKGIQVRMKWCATCRFYRPPRCSHCSVCDNCVEEFDHHCPWVNNCIGRRNYRYFFLFLLSLTAHIMGVFGFGLLYVLYHIEELSGVRTAVTMAVMCVAGLFFIPVAGLTGFHVVLVARGRTTNEQVTGKFRGGVNPFTNGSSNNVSRVLSSSPAPRYLGRPKKEKTIVIRPPFLRPEVSDGQITVKIMDNGIQGELRRTKSKGSLEITESQSADAEPPPPPKPDLSRYTGLRTHLSLATNEDSSLLGKDSPPTPTMYKYRPGYSSSSTSAAMPHSSSAKLSRGDSLKEPTSIADSSRHPSYRSEPSLEPESFRSPTFGKSFHFDPLSSGSRSSSLKSAQGTGFELGQLQSIRSEGTTSTSYKSLANQTRNGSLSYDSLLTPSDSPDFESVQAGPEPDPPLGYTSPFLSARLAQQREAERHPRLLPTGPPHREPSPVRYDNLSRHIVASLQEREKLLRQSPPLAGREEEPGLGDSGIQSTPGSGHAPRTSSSSDDSKRSPLSKTPLGRPAVPRFGKPDGLRSRGLGSPEPGTTAPYLGRSISYSSQKAPSGVSETEEVALQPLLTPKDEVQLKTTYSKSNGQPKSIGSASPGPGQPPLSSPTRGGVKKVSGVGGTTYEISV
notes: as for B8
Km [4]: 17.95 ± 11.12 µM

B10: human zDHHC4 (Homo sapiens) (protein)
chain: MDFLVLFLFYLASVLMGLVLICVCSKTHSLKGLARGGAQIFSCIIPECLQRAVHGLLHYLFHTRNHTFIVLHLVLQGMVYTEYTWEVFGYCQELELSLHYLLLPYLLLGVNLFFFTLTCGTNPGIITKANELLFLHVYEFDEVMFPKNVRCSTCDLRKPARSKHCSVCNWCVHRFDHHCVWVNNCIGAWNIRYFLIYVLTLTASAATVAIVSTTFLVHLVVMSDLYQETYIDDLGHLHVMDTVFLIQYLFLTFPRIVFMLGFVVVLSFLLGGYLLFVLYLAATNQTTNEWYRGDWAWCQRCPLVAWPPSAEPQVHRNIHSHGLRSNLQEIFLPAFPCHERKKQE
notes: as for B4
Km ([3]; 5 min): 9.68 ± 2.34 µM

B11: mouse zDHHC2 (Mus musculus) (protein)
chain: MAPSGSGGVRRRCRRVLYWIPVVFISLLLGWSYYAYAIQLCIVSMENIGEQVVCLMAYHLLFAMFVWSYWKTIFTLPMNPSKEFHLSYAEKELLEREPRGEAHQEVLRRAAKDLPIYTRTMSGAIRYCDRCQLIKPDRCHHCSVCDKCILKMDHHCPWVNNCVGFSNYKFFLLFLAYSLLYCLFIAATDLQYFIRFWTNGLPDTQAKFHIMFLFFAAAMFSVSLSSLFGYHCWLVSKNKSTLEAFRNPVFRHGTDKNGFSLGFSKNMRQVFGDEKKYWLLPVFSSQGDGCSFPTCLVNQDPEQPSTPAGLNSTVKNPENHQFPAKPLRESQSHLLKDSQTWTESSANPGKGKAGMSNPALTMENET
notes: as for B1
Km [1]: 2.86 ± 0.78 µM
